# Molecular target: T1, purified human Lys77-Plasminogen, P00747
# T1 chain: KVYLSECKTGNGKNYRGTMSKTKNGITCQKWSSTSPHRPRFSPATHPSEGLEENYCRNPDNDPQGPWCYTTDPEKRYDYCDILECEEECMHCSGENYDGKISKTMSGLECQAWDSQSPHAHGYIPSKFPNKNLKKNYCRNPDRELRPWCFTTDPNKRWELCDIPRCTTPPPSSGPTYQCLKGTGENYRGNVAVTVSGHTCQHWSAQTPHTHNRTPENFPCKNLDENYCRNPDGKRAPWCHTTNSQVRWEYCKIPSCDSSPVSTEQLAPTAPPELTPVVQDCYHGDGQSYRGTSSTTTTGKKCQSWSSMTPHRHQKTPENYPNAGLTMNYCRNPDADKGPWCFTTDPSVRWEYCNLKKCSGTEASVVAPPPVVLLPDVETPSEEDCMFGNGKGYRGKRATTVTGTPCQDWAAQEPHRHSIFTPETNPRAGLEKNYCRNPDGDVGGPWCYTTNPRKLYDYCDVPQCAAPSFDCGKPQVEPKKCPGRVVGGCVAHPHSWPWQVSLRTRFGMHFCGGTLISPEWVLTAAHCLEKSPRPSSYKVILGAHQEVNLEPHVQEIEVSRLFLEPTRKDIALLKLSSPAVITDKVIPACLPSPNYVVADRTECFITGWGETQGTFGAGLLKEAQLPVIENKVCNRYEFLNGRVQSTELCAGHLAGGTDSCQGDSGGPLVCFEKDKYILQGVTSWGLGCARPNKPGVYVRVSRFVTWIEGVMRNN
protein,measurement,value
thiolated streptokinase (protein) IAGPEWLLDRPSVNNSQLVVSVAGTVEGTNQDISLKFFEIDLTSRPAHGGKTEQGLSPKSKPFATDSGAMSHKLEKADLLKAIQEQLIANVHSNDDYFEVIDFASDATITDRNGKVYFADKDGSVTLPTQPVQEFLLSGHVRVRPYKEKPIQNQAKSVDVEYTVQFTPLNPDDDFRPGLKDTKLLKTLAIGDTITSQELLAQAQSILNKNHPGYTIYERDSSIVTHDNDIFRTILPMDQEFTYRVKNREQAYRINKKSGLNEEINNTDLISEKYYVLKKGEKPYDPFDRSHLKLFTIKYVDVDTNELLKSEQLLTASERNLDFRDLYDPRDKAKLLYNNLDAFGIMDYTLTGKVEDNHDDTNRIITVYMGKRPEGENASYHLAYDKDRYTEEEREVYSYLRYTGTPIPDNPNDK,"plasmin generated in the plasminogen activation assay (S-2251 amidolysis, SU/ml)",thiolated SK (1 nM) generated plasmin at a nearly linear of 4225 SU/mL

# Source: patent US20100286367
